According to paper PMC6467748:

Biological target: mouse-derived mAb 735 (mo735) (mouse)
Test: SPR

Kd: 10.2 nM
Substance: chicken brain-derived polysialylated neural cell adhesion molecule (NCAM) (from UniProt P13590 20-711) (natural protein)
